Test system: c-Abl (mouse)
Assay: phosphorylation enrichment, bacterial display (enrichment ratio); higher = better substrate or ligand; peptides without Tyr show the background
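Note: 11-residue human phosphosite peptides and single-mutation variants displayed on the E. coli surface, counted by deep sequencing, each peptide's frequency after selection divided by its frequency in the unselected input library; frequency after pTyr selection over input frequency; kinase dosed for 20-30% of maximal phosphorylation in three min.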

| Sequence | phosphorylation enrichment |
| --- | --- |
| QHNPEYVQQAS [LRRC7_Y1058] | 0.641 |
| SENPKYPEVGD [TMEM43_Y233] | 0.822 |
| TYEPNYGTVKR [RAPGEF6_Y1447_Q1452R] | 0.656 |
| SNFRAYATEPH [TNNI3_Y29_YF] | 0.64 |
| IRGNMYFENSF [EGFR_Y112_YF] | 0.583 |
| WKKEIYEESST [MOCS2_Y170] | 0.83 |
| LGRGKSSEVFE [CSNK2A1_Y50_Y50S] | 0.835 |
| KSMSVYCTPNK [ATP2A2_Y497] | 1.38 |
| VYAADYYKLLG [ROR2_Y645] | 1.99 |
| KDHPDYKYPPR [SOX10_Y171_Q174P] | 0.515 |
| ESDGAYIQRMQ [CCDC137_Y125_H127Q] | 0.599 |
| RDMNAYISPSP [MMAA_Y207_R209S] | 0.671 |
| ARKRKYFKKHE [NFIX_Y40] | 0.64 |
| HTEGEYSSLEH [IDH3B_Y171_Q166H] | 0.97 |
| IGEGTSGVVYK [CDK2_Y15_Y15S] | 0.5 |
| KLPDAYERLIL [G6PD_Y437] | 0.796 |
| HSGVSYYINLC [IGF2R_Y2024_N2020S] | 1.21 |

| Sequence | phosphorylation enrichment |
| --- | --- |
| KDHPDYKYQRR [SOX10_Y171_P175R] | 0.516 |
| QRRNVYYYSYL [PTEN_Y176_Y174N] | 1.15 |
| GDYLSYREFHL [ERBIN_Y1107_S1112L] | 15.7 |
| DPTFGYEDFTR [SESN2_Y323] | 0.733 |
| PGIRMYQVQYN [LRFN1_Y454] | 0.995 |
| LESETYRRLLD [KRT12_Y429_I426S] | 0.778 |
| IHHIDYYKETT [FGFR1_Y653_K656E] | 0.442 |
| QRIHDYYEHRY [HCN4_Y554] | 0.445 |
| LTSKPYAFTAQ [NDUFS1_Y236_R241Q] | 0.521 |
| ERMKVYVPIGF [EPHX1_Y393_T396I] | 0.543 |
| PTYEHYANSTQ [SLC12A3_Y70] | 0.753 |
| DSSIRYLQEIF [FGG_Y135_YF] | 0.545 |
| IDAICYFRMEN [NPHS2_Y194_YF] | 0.974 |
| TSYQMYDKGLV [IARS2_Y231_F227S] | 0.432 |
| EKKDVYKAGEQ [CFH_Y1008] | 0.475 |
| LNPFIYSLRNW [OR1A2_Y288] | 4.13 |

Target: EPHB2 (UniProt P29323)
Sequence (P29323 whole entry, looked up): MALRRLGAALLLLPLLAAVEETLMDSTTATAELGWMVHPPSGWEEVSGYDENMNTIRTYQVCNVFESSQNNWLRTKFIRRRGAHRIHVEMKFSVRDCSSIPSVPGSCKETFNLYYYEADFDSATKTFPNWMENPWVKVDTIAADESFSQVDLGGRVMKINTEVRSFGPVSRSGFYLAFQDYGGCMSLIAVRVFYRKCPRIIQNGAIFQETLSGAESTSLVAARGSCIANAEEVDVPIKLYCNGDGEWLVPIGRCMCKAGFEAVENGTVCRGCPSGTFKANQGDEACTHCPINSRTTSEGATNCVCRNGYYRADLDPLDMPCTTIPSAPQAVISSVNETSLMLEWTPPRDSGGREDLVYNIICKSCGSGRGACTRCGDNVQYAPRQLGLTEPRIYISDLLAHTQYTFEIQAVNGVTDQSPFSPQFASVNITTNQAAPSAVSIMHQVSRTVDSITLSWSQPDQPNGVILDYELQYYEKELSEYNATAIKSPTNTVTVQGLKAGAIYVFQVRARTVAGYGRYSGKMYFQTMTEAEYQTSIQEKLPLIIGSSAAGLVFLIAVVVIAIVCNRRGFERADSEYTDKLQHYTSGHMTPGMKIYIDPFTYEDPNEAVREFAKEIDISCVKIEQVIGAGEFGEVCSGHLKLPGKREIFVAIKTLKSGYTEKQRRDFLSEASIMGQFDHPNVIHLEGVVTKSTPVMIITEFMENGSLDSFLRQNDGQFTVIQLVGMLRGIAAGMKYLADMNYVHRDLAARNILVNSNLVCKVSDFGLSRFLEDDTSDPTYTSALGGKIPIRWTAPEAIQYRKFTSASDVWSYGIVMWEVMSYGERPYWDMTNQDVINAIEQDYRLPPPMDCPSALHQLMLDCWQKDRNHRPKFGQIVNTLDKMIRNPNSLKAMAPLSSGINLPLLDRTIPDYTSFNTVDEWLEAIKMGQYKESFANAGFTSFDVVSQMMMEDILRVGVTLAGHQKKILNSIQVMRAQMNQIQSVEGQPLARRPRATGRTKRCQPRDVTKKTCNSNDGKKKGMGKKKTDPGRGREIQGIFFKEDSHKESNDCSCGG
Assay: as above

| Sequence | phosphorylation enrichment |
| --- | --- |
| QHNPEYVQQAS [LRRC7_Y1058] | 0.604 |
| SENPKYPEVGD [TMEM43_Y233] | 0.561 |
| TYEPNYGTVKR [RAPGEF6_Y1447_Q1452R] | 3.31 |
| SNFRAYATEPH [TNNI3_Y29_YF] | 0.463 |
| IRGNMYFENSF [EGFR_Y112_YF] | 0.547 |
| WKKEIYEESST [MOCS2_Y170] | 0.603 |
| LGRGKSSEVFE [CSNK2A1_Y50_Y50S] | 0.605 |
| KSMSVYCTPNK [ATP2A2_Y497] | 0.702 |
| VYAADYYKLLG [ROR2_Y645] | 1.78 |
| KDHPDYKYPPR [SOX10_Y171_Q174P] | 0.392 |
| ESDGAYIQRMQ [CCDC137_Y125_H127Q] | 0.496 |
| RDMNAYISPSP [MMAA_Y207_R209S] | 0.477 |
| ARKRKYFKKHE [NFIX_Y40] | 0.535 |
| HTEGEYSSLEH [IDH3B_Y171_Q166H] | 1.28 |
| IGEGTSGVVYK [CDK2_Y15_Y15S] | 0.319 |
| KLPDAYERLIL [G6PD_Y437] | 0.49 |
| HSGVSYYINLC [IGF2R_Y2024_N2020S] | 0.942 |

| Sequence | phosphorylation enrichment |
| --- | --- |
| KDHPDYKYQRR [SOX10_Y171_P175R] | 0.3 |
| QRRNVYYYSYL [PTEN_Y176_Y174N] | 3.05 |
| GDYLSYREFHL [ERBIN_Y1107_S1112L] | 22.7 |
| DPTFGYEDFTR [SESN2_Y323] | 0.577 |
| PGIRMYQVQYN [LRFN1_Y454] | 0.92 |
| LESETYRRLLD [KRT12_Y429_I426S] | 0.836 |
| IHHIDYYKETT [FGFR1_Y653_K656E] | 0.653 |
| QRIHDYYEHRY [HCN4_Y554] | 1.23 |
| LTSKPYAFTAQ [NDUFS1_Y236_R241Q] | 0.471 |
| ERMKVYVPIGF [EPHX1_Y393_T396I] | 0.497 |
| PTYEHYANSTQ [SLC12A3_Y70] | 2.33 |
| DSSIRYLQEIF [FGG_Y135_YF] | 0.5 |
| IDAICYFRMEN [NPHS2_Y194_YF] | 0.623 |
| TSYQMYDKGLV [IARS2_Y231_F227S] | 0.665 |
| EKKDVYKAGEQ [CFH_Y1008] | 0.643 |
| LNPFIYSLRNW [OR1A2_Y288] | 0.819 |

From the supplement of paper PMC10065799, “High-throughput profiling of sequence recognition by tyrosine kinases and SH2 domains using bacterial peptide display” (eLife, 2023)
